Experimental data as given in publication PMC8160216.

Target: human M3R-mCit (muscarinic M3 receptor, C-terminally mCitrine-labeled) (human) (UniProt P20309)
Assay: FRET or BRET; single permeabilized HEK293T cells (saponin), nucleotides washed out; FRET between M3R-mCitrine and mTurquoise2-Gγ2 of the co-expressed G protein; 10 µM acetylcholine for 1 min, 2 min washout, twice; final GTPγS to induce full dissociation; stability of the complex as AUC of the normalized trace after agonist withdrawal; room temperature, internal buffer pH 7.35

UniProt P20309, sequence (P20309 whole entry): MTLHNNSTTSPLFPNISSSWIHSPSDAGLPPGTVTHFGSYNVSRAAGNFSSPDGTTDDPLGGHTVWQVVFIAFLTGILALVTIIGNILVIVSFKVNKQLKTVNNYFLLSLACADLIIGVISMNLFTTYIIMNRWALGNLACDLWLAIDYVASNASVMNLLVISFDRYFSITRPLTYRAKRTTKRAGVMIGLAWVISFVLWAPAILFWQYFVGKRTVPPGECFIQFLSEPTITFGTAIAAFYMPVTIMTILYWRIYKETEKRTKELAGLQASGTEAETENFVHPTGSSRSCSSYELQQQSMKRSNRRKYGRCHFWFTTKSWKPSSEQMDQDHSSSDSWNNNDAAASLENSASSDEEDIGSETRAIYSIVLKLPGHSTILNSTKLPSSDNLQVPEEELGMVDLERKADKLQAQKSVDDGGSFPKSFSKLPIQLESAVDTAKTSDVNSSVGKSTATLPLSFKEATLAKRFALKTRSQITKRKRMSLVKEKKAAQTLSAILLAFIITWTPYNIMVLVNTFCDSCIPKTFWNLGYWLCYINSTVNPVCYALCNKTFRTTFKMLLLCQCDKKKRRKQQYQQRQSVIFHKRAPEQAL

Row | Substance | reduction of the AUC of dissociation relative to Gq | faster dissociation relative to Gq
1 | GqoC11 (Gαq chimera with the C-terminal part of the α5 helix of Gαo, with Gβ1 and mTurq2-Gγ2) (from UniProt P21279 1-348; P59215 344-354; P62873 1-340; P63212 1-71) (complex) | < 5% | 
2 | GqoN + C11 (Gαq chimera with the N-terminus and the last 11 amino acids of Gαo, with Gβ1 and mTurq2-Gγ2) (from UniProt P59215 344-354; P62873 1-340; P63212 1-71) (complex) |  | < 10%
